Experimental data reported in paper PMC5695019, “Expression, Purification, and Characterization of (R)-Sulfolactate Dehydrogenase (ComC) from the Rumen Methanogen Methanobrevibacter millerae SM9” (Archaea, 2017).

Assays:
purified protein [1] = substrate: O=C(O)C(=O)CS(=O)(=O)O; assay: purified protein; type: biochemical, Methanobrevibacter millerae; conditions: reduction reaction, 400 μM NADH, 400 mM KCl, 50 mM BTP pH 6.5, 37°C
purified protein [2] = substrate: NC(=O)C1=CN([C@@H]2O[C@H](COP(=O)(O)OP(=O)(O)OC[C@H]3O[C@@H](n4cnc5c(N)ncnc54)[C@H](O)[C@@H]3O)[C@@H](O)[C@H]2O)C=CC1; assay: purified protein; type: biochemical, Methanobrevibacter millerae; conditions: reduction reaction, 500 μM sulfopyruvate, 400 mM KCl, 50 mM BTP pH 6.5, 37°C, varied: cofactor

B1: ComC ((R)-sulfolactate dehydrogenase) (Methanobrevibacter millerae) (protein)
chain: MKIMKDNEIALVKEILKKLGASEEDCELVAEATIDADLKGFTSHGLGRFPQYLISIEAGTINLEDNITIEKETPAIALINGNSGFGQAVSYKAMQIAIKKAKEVGIGCVGVHNTNHFGVTGFYSDLALRENVIGMVIANTDPAIAPLGGKEALIGTNPIAIGIPSETYITVDMATSVTARGKIIESRRKGLDLPEGWALDKDGNPTTDPEAALDGGSILPFGGFKGYALALMVEILTGPLVQAGYGTGVTGTASPTKDCTKGDLYIAIDPSKFGDFGDFVANTEDFVSQVRATGETVAIPGDLEVKRIAEAEENGIEIDAKLYEQLKGICDDLDIDIDSYLED
notes: full-length, His-tagged (pET151D TOPO, E. coli Rosetta 2), tag kept, 376 residues and 40104 Da with tag; dimer (75 kDa by gel filtration); primers encode N-terminus MKIMKDNE and C-terminus DIDSYLED
- Km (purified protein [1]): 196 ± 71 µM
- Vmax (purified protein [1]): 93.9 µmol/min/mg
- kcat (purified protein [1]): 62.8 ± 9.7 s⁻¹
- Km (purified protein [2]): 55.1 ± 7.6 µM
- Vmax (purified protein [2]): 73.1 µmol/min/mg
- kcat (purified protein [2]): 48.9 ± 2.2 s⁻¹
